Measured values reported in US20240150494A1.

Columns and labels:
[1] = target: G2-Rituximab (galactosylated afucosylated glycoform of rituximab) (human); test: SPR, 256 to 8 nM in 2-fold steps
[2] = target: G2F-Rituximab (galactosylated fucosylated glycoform of rituximab) (human); test: SPR, 256 to 8 nM in 2-fold steps

- KD1 [1]: 29.9 nM
- KD2 [1]: 2.3 nM
- KD1 [2]: 55.2 nM
- KD2 [2]: 2.29 nM
Substance: tetrameric FcγRIIIA (from UniProt P08637 17-208) (receptor)
